Residue numbers refer to the chain shown, from its start. One block for each binder: values may come before it.
Assays:
canine TNFα [1] = target: T1, canine TNFα (canine, UniProt P51742 77-233, biotinylated (EZ-Link NHS-LC-biotin) in Example 2); assay: BLI (biosensor Octet), format not stated
T1 construct: Bought recombinant protein; also called cTNFα; canine TNF-alpha

canine TNFα [2] = target: T1, canine TNFα; assay: BLI (ForteBio), biotinylated TNFα on streptavidin tips, antibody in solution, 1:1 model
Description: (§1) The binding analysis was performed as follows. Briefly, canine and human TNFα were biotinylated. The free unreacted biotin was removed from biotinylated TNFα by extensive dialysis. Biotinylated TNFα was captured on streptavidin sensor tips. The association of five different concentrations (150, 50, 17, 5.6, and 1.9 nM) of TNFα antibody and TNFα (human and canine, in different tests) was monitored for ninety seconds. Dissociation was monitored for 600 seconds. A buffer only blank curve was subtracted to correct for any drift. The data were fit to a 1:1 binding model using ForteBio™ data analysis software to determine the kon (association rate constant), koff (dissociation rate constant) and the KD (dissociation constant). […] The buffer for dilutions and all binding steps was: 200 mM phosphate, 150 mM NaCl, 0.02% Tween-20, 0.05% sodium azide, and 0.1 mg BSA, pH7.4.

human TNFα = target: T2, human TNFα (human, UniProt P01375 77-233, biotinylated (EZ-Link NHS-LC-biotin) in Example 2); assay: as above
T2 construct: Bought recombinant protein
Description: as §1

T2 sequence (P01375 77-233 limits assumed): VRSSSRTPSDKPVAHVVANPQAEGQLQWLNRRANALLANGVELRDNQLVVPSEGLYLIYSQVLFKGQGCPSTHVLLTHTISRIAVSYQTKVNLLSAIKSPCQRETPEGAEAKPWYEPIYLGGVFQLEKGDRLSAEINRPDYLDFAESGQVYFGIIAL
T1 sequence (P51742 77-233 limits assumed): as the sequence (P01375 77-233 limits assumed) above, with R2K, Q21E, N30S, R44T, V49I, E53D, I83F, A109T, R138L, D140N counted along it

Kd (canine TNFα [1]): 0.838 nM
B1: bispecific molecule comprising SEQ ID NO: 77 and SEQ ID NO: 81 (anti-NGF + Fc IgGB (FcRn long-acting Q to Y, C1q-, CD16-) + anti-TNF ScFv) (bispecific antibody)
light: EIVMTQSPGSLAGSAGESVSINCRASEDIYNALAWYQQKPGERPKLLIYNTDTLHTGVPARFSSSGSGTDFTLTINNLQAEDVGDYFCQHYFGYPRTFGAGTKVELKRNDAQPAVYLFQPSPDQLHTGSASVVCLLNSFYPKDINVKWKVDGVIQDTGIQESVTEQDKDSTYSLSSTLTMSSTEYLSHELYSCEITHKSLPSTLIKSFQRSECQRVD
heavy: not shown
notes: Expressed in mammalian cells, purified on Protein A; also called bispecific anti-canine TNF and anti-canine NGF molecule

Kd (canine TNFα [2]): 0.0988 nM
koff (canine TNFα [2]): 8.28e-05 s⁻¹
kon (canine TNFα [2]): 839000 M⁻¹ s⁻¹
Kd (human TNFα): 0.0207 nM
koff (human TNFα): 1.53e-05 s⁻¹
kon (human TNFα): 741000 M⁻¹ s⁻¹
B2: KBA v1 (caninized TNFα D2E7 antibody: KBA VL v1 and canine kappa light constant region; caninized variable heavy chain of D2E7 and canine IgG-B constant region) (antibody, V domains shown)
VH: EVQLVESGGDLVKPGGSLRLSCVASGFTFDDYAMHWVRQAPGKGLQWVSAITWNSGHIDYADAVKGRFTISRDNAKNTLYLQMNSLRAEDTAVYYCAKVSYLSTASSLDYWGQGTLVTVSS
VL: DIVMTQTPLSLSASPGEPVSISCRASQGIRNYLAWYLQKPGQSPRLLIYAASTLQSGVPDRFSGSGSGTDFTLRIGRLEAEDAAIYYCQRYNRAPYTFGQGTKVEIKR
notes: Full light and heavy chains without leader; expressed in CHO cells, purified on Protein A; also called KIND-509

Kd (canine TNFα [2]): 0.303 nM
koff (canine TNFα [2]): 0.000216 s⁻¹
kon (canine TNFα [2]): 713000 M⁻¹ s⁻¹
Kd (human TNFα): 0.269 nM
koff (human TNFα): 0.00015 s⁻¹
kon (human TNFα): 575000 M⁻¹ s⁻¹
B3: KBA v2 (caninized TNFα D2E7 antibody: KBA VL v2 and canine kappa light constant region; caninized variable heavy chain of D2E7 and canine IgG-B constant region) (antibody, V domains shown)
VH: B2 VH
VL: B2 VL with L9P, Y36F, L37R, R45Q, P59S, G76S, E81D, I85V
notes: Full light and heavy chains without leader; expressed in CHO cells, purified on Protein A

— patent US20240101715A1 (KINDRED BIOSCIENCES, published 2024)
